Measurements taken from patent publication US20190315842A1 (DUKE UNIVERSITY, published 2019).

T1: sclerosis autoantigen (Scl-70) (UniProt P11387 2-765, limits assumed)
T1 sequence (looked up): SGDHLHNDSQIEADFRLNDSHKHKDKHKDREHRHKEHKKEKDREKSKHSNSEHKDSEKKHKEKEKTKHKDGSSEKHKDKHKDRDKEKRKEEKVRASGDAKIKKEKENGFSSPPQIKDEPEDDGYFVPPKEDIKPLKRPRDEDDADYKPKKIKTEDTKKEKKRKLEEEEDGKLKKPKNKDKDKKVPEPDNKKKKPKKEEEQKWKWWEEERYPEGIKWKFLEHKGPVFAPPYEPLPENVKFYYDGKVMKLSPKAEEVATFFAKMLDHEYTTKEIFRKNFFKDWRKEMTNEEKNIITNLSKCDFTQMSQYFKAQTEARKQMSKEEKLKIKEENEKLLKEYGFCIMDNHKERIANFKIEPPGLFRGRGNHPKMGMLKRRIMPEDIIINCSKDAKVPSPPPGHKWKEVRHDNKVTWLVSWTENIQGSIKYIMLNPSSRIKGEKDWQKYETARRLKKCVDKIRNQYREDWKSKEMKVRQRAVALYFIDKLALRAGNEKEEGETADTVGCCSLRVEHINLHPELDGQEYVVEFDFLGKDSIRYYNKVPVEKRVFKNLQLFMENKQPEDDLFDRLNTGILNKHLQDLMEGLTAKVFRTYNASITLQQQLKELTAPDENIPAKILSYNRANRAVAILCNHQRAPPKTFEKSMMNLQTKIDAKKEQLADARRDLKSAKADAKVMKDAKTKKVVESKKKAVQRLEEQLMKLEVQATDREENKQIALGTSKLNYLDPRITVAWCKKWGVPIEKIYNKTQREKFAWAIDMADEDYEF

T2: histidine-tRNA ligase (Jo-1) (UniProt P12081 2-509)
T2 sequence (looked up): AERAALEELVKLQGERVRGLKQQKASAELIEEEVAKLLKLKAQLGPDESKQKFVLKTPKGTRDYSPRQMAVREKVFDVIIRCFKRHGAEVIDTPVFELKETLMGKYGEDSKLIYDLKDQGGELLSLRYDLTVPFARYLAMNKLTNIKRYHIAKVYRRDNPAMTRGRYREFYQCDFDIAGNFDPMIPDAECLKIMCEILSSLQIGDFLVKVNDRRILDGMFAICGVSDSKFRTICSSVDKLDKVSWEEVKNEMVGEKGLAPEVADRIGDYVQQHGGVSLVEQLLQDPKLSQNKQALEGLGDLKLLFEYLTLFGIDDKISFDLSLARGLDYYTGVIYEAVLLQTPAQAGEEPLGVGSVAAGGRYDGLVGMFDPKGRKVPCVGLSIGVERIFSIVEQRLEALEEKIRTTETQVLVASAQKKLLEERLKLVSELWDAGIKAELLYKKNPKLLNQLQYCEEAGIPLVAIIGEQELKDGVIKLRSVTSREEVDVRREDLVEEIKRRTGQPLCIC

T3: systemic lupus erythematosus autoantigen SSB (UniProt P05455 1-408, limits assumed)
T3 sequence (looked up): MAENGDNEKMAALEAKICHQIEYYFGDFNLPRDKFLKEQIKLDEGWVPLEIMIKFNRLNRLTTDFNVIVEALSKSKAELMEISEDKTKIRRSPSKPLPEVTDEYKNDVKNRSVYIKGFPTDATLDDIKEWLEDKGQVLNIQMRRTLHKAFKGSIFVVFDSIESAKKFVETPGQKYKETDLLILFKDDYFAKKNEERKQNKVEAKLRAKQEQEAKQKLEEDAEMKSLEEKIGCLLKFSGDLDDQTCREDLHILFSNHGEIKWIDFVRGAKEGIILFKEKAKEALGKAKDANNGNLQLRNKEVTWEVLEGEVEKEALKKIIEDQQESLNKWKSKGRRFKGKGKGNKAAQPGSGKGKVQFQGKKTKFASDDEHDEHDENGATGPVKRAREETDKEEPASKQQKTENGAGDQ

B1: Ab7957/293i (antibody, IgG1, V domains shown)
VH: LVESGGGVVPPGKSLRLSCAASGFTFSLYGIHWVRQAPGKGLEWVAVISYDGNTKYYTDSVKGRFTISRDNAKNTIYLQMNSLRLDDTAVYYCAKGAANSATFDFWGRGTMVTVSS
VL: MTQSPDSLTLSLGERATINCRSSRTVLYRSNNKNYLAWYQHKPGQPPKLLMSWASTRETGVPDRFSGSGSGTHFTLTITSLQPEDVAVYYCQQYYSPPWTFGQGTKVEIR
notes: Recombinant human antibody with IgG1 heavy chain backbone and kappa light chain constant; they begin at LVESGGG and MTQSP; also called Ab7957i; mAb 7957
B2: Ab7968 (antibody, IgG1, V domains shown)
VH: LVESGGGVVQPGRSLRLSCAASGFTFSRYGMHWVRQAPGKGLEWVAVMSYDGSTKYYADSVKGRFAISRDNPKNTLFLQMNSLRPDDTAVYYCAKGGAAAAVMDVWGKGTTVTVSS
VL: MTQSPDSLTVSLGERATISCKSSQRLLYSSNNKNYLAWYQQKPGQPPKLLMYWASTRESGVPDRFSGSGSGTDFSLTISSLQAEDVAVYYCQQYYNPPWTFGQGTKVEVK
notes: Recombinant human antibody with IgG1 heavy chain backbone and kappa light chain constant; they begin at LVESGGG and MTQSP; also called mAb 7968; mAb7968
B3: Ab7962/293i (antibody, V domains shown)
VH: LVESGGGLVQPGGSLRLSCAASGFTFSSYEMNWVRQAPGKGLEWVSYISSSGSTIYYADSVKGRFTISRDNAKNSLYLQMNSLRAEDTAVYYCARVEQLAPSPYMDVWGKGTTVTVSS
VL: MTQSLDSLTVSLGERATINCKSSQSLLYTSNNKNYLAWYQQKSGQPPKLLIYWASIRDSGVPDRFSGSGSATDFTLTINNLQAEDVAVYFCQQYYKTPLTFGGGTKVEVR
notes: Recombinant human antibody with IgG1 heavy chain backbone and kappa light chain constant (IgM in the donor B cell); they begin at LVESGGG and MTQSL; also called clone 27; pH007962/pK005996

Tests used:
[1] = target: systemic lupus erythematosus autoantigen SSA; assay: AtheNA Multi-Lyte ANA, Ab at 50 ug/ml;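 further: monoclonal antibodies probed against a nuclear autoantigen panel (SSA, SSB, Sm, RNP, Scl-70, Jo-1, dsDNA, CentB, histones), with anti-HIV 4E10 and palivizumab as control antibodies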
Description: (§1) All 7 mAbs were tested against the AtheNA Multi-Lyte panel of autoantigens. The AtheNA Multi-Lyte ANA test for a panel of nuclear antigens: systemic lupus erythematosus autoantigens SSA and SSB, sphingomyelin (Sm), ribonucleoprotein (RNP), sclerosis autoantigen (Scl-70), histidine-tRNA ligase (Jo-1), double-stranded DNA (dsDNA), centromere B (CentB), and histones. 4e10 (Anti HIV, NIH AIDS Reagent Program) and SYNAGIS® (anti-RSV monoclonal antibody palivizumab; “Synagis”) were used a controls.

Sm (sphingomyelin) [2] = target: T4, Sm (sphingomyelin); assay: AtheNA Multi-Lyte ANA, Ab at 50 ug/ml;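 further: monoclonal antibodies probed against a nuclear autoantigen panel (SSA, SSB, Sm, RNP, Scl-70, Jo-1, dsDNA, CentB, histones), with anti-HIV 4E10 and palivizumab as control antibodies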
T4 construct: in an ANA panel of nuclear antigens Sm is usually the Smith ribonucleoprotein antigen; Kept, but see recheck
Description: as §1

ribonucleoprotein (RNP) [3] = assay: AtheNA Multi-Lyte ANA, Ab at 50 ug/ml;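 further: monoclonal antibodies probed against a nuclear autoantigen panel (SSA, SSB, Sm, RNP, Scl-70, Jo-1, dsDNA, CentB, histones), with anti-HIV 4E10 and palivizumab as control antibodies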
Description: as §1

[4] = target: T1, sclerosis autoantigen (Scl-70); assay: AtheNA Multi-Lyte ANA, Ab at 50 ug/ml;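 further: monoclonal antibodies probed against a nuclear autoantigen panel (SSA, SSB, Sm, RNP, Scl-70, Jo-1, dsDNA, CentB, histones), with anti-HIV 4E10 and palivizumab as control antibodies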
Description: as §1

[5] = target: T2, histidine-tRNA ligase (Jo-1); assay: AtheNA Multi-Lyte ANA, Ab at 50 ug/ml
Description: as §1

[6] = target: systemic lupus erythematosus autoantigen SSA; assay: AtheNA Multi-Lyte ANA, Ab at 12.5 ug/ml;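 further: monoclonal antibodies screened for binding to a panel of nuclear autoantigens (SSA, SSB, Sm, RNP, Scl-70, Jo-1, dsDNA, CentB, histones), with anti-HIV and anti-RSV antibodies as controls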
Description: as §1

Sm (sphingomyelin) [7] = target: T4, Sm (sphingomyelin); assay: AtheNA Multi-Lyte ANA, Ab at 12.5 ug/ml;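 further: monoclonal antibodies screened for binding to a panel of nuclear autoantigens (SSA, SSB, Sm, RNP, Scl-70, Jo-1, dsDNA, CentB, histones), with anti-HIV and anti-RSV antibodies as controls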
Description: as §1

ribonucleoprotein (RNP) [8] = assay: AtheNA Multi-Lyte ANA, Ab at 12.5 ug/ml;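 further: monoclonal antibodies screened for binding to a panel of nuclear autoantigens (SSA, SSB, Sm, RNP, Scl-70, Jo-1, dsDNA, CentB, histones), with anti-HIV and anti-RSV antibodies as controls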
Description: as §1

[9] = target: T1, sclerosis autoantigen (Scl-70); assay: AtheNA Multi-Lyte ANA, Ab at 12.5 ug/ml;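 further: monoclonal antibodies screened for binding to a panel of nuclear autoantigens (SSA, SSB, Sm, RNP, Scl-70, Jo-1, dsDNA, CentB, histones), with anti-HIV and anti-RSV antibodies as controls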
Description: as §1

[10] = target: T2, histidine-tRNA ligase (Jo-1); assay: AtheNA Multi-Lyte ANA, Ab at 12.5 ug/ml
Description: as §1

[11] = target: systemic lupus erythematosus autoantigen SSA; assay: AtheNA Multi-Lyte ANA, Ab at 6.25 ug/ml;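 further: monoclonal antibodies screened for reactivity against a panel of nuclear autoantigens, with an anti-HIV and an anti-RSV monoclonal antibody serving as controls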
Sm (sphingomyelin) [12] = target: T4, Sm (sphingomyelin); assay: AtheNA Multi-Lyte ANA, Ab at 6.25 ug/ml;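 further: monoclonal antibodies screened for reactivity against a panel of nuclear autoantigens, with an anti-HIV and an anti-RSV monoclonal antibody serving as controls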
ribonucleoprotein (RNP) [13] = assay: AtheNA Multi-Lyte ANA, Ab at 6.25 ug/ml;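 further: monoclonal antibodies screened for reactivity against a panel of nuclear autoantigens, with an anti-HIV and an anti-RSV monoclonal antibody serving as controls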
[14] = target: T1, sclerosis autoantigen (Scl-70); assay: AtheNA Multi-Lyte ANA, Ab at 6.25 ug/ml;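 further: monoclonal antibodies screened for reactivity against a panel of nuclear autoantigens, with an anti-HIV and an anti-RSV monoclonal antibody serving as controls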
[15] = target: T2, histidine-tRNA ligase (Jo-1); assay: AtheNA Multi-Lyte ANA, Ab at 6.25 ug/ml
[16] = target: T3, systemic lupus erythematosus …; assay: AtheNA Multi-Lyte ANA, Ab at 12.5 ug/ml
Description: as §1

| Binder | AtheNA signal [1] | AtheNA signal (Sm (sphingomyelin) [2]) | AtheNA signal (ribonucleoprotein (RNP) [3]) | AtheNA signal [4] | AtheNA signal [5] | AtheNA signal [6] | AtheNA signal (Sm (sphingomyelin) [7]) | AtheNA signal (ribonucleoprotein (RNP) [8]) | AtheNA signal [9] | AtheNA signal [10] | AtheNA signal [11] | AtheNA signal (Sm (sphingomyelin) [12]) | AtheNA signal (ribonucleoprotein (RNP) [13]) | AtheNA signal [14] | AtheNA signal [15] | AtheNA signal [16] |
| --- | --- | --- | --- | --- | --- | --- | --- | --- | --- | --- | --- | --- | --- | --- | --- | --- |
| B1 | 11 | 4 | 6 | 2 | 5 | 9 | 1 | 3 | 2 | 3 | 9 | 3 | 3 | 2 | 3 |  |
| B2 | 7 | 7 | 10 | 4 | 7 | 4 | 7 | 7 | 3 | 2 | 4 | 4 | 7 | 3 | 4 | 12 |
| B3 | 2 | 4 | 5 | 2 | 4 | 2 | 3 | 3 | 2 | 5 | 2 | 4 | 2 | 1 | 4 | 5 |
